Assays:
[1] = target: TRIMCypA from Macaca mulatta (Macaca mulatta)
[2] = target: TRIMCypA from Macaca fascicularis (Macaca fascicularis)
[3] = target: owl monkey TRIMCypA fusion protein (owl monkey (Aotus sp.))

| Substance | restriction of infection: ratio of infection titers on CHO cells stably expressing mamu-TRIMCypA over control CHO cells (infectivity ratio) [1] | restriction of infection: ratio of infection titers on CHO cells stably expressing mafa-TRIMCypA over control CHO cells (infectivity ratio) [2] | restriction of infection: ratio of infected cells in CHO cells stably expressing owl-TRIMCypA over control CHO cells (infectivity ratio) [3] |
| --- | --- | --- | --- |
| HIV-2ROD capsid (CA) (natural protein) | < 0.2 | – | – |
| SIVgsn capsid (CA) (natural protein) | – | < 0.4 | – |
| SIVmnd1 capsid (CA) (natural protein) | – | < 0.4 | < 0.4 |
